# Tested on: Escherichia coli TOP10
# Test: shrunken log2 fold change of peptide-encoding DNA abundance (4.5 h post-induction vs induction); higher = less antimicrobial activity (less host growth inhibition)
# Settings: time post-induction: 4.5 h; library: site-saturation at positions 5, 18, 19, 20
# 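Note: peptides expressed intracellularly from a pBAD plasmid library in pooled LB shake-flask culture, induced with 0.3% L-arabinose, DNA abundance read by NGS, three biological replicates, DESeq2 with apeglm shrinkage.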
row,Sequence,shrunken log2 fold change
1,RRIRPRPPRLPRPRPRPSDYPRP,-0.691
2,RRIRERPPRLPRPRPRPAMIPRP,-0.0554
3,RRIRMRPPRLPRPRPRPVIEPRP,-0.0535
4,RRIRQRPPRLPRPRPRPNYKPRP,-0.545
5,RRIRDRPPRLPRPRPRPSDGPRP,0.166
6,RRIRPRPPRLPRPRPRPQRVPRP,0.202
7,RRIRMRPPRLPRPRPRPQLCPRP,0.237
8,RRIRKRPPRLPRPRPRPYVCPRP,-0.0742
9,RRIRRRPPRLPRPRPRPYRFPRP,-0.15
10,RRIRYRPPRLPRPRPRPVKDPRP,-0.0122
11,RRIRQRPPRLPRPRPRPGKMPRP,0.0812
12,RRIRFRPPRLPRPRPRPTKIPRP,0.359
13,RRIRYRPPRLPRPRPRPCLGPRP,-0.231
14,RRIRDRPPRLPRPRPRPVPIPRP,0.245
15,RRIRERPPRLPRPRPRPMAAPRP,0.421
16,RRIRNRPPRLPRPRPRPIQEPRP,-0.0116
17,RRIRERPPRLPRPRPRPGTFPRP,-0.378
18,RRIRHRPPRLPRPRPRPVCAPRP,0.208
19,RRIRMRPPRLPRPRPRPSVCPRP,0.386
20,RRIRWRPPRLPRPRPRPMVIPRP,-0.14
21,RRIRQRPPRLPRPRPRPSVVPRP,0.082
22,RRIRNRPPRLPRPRPRPFIEPRP,-0.412

row,Sequence,shrunken log2 fold change
1,RRIRWRPPRLPRPRPRPHPVPRP,-0.0118
2,RRIRARPPRLPRPRPRPELAPRP,1.39
3,RRIRGRPPRLPRPRPRPGWTPRP,0.708
4,RRIRQRPPRLPRPRPRPMFGPRP,0.0107
5,RRIRNRPPRLPRPRPRPHSNPRP,-0.341
6,RRIRIRPPRLPRPRPRPCDDPRP,-0.395
7,RRIRYRPPRLPRPRPRPDPTPRP,-0.435
8,RRIRPRPPRLPRPRPRPKWCPRP,0.0741
9,RRIRVRPPRLPRPRPRPQAYPRP,-0.00917
10,RRIRYRPPRLPRPRPRPFFGPRP,-0.225
11,RRIRDRPPRLPRPRPRPRIDPRP,0.0784
12,RRIRDRPPRLPRPRPRPQLTPRP,0.0489
13,RRIRYRPPRLPRPRPRPQDWPRP,-0.258
14,RRIRHRPPRLPRPRPRPWRRPRP,-0.0609
15,RRIRSRPPRLPRPRPRPELMPRP,0.469
16,RRIRLRPPRLPRPRPRPSVKPRP,-0.0487
17,RRIRGRPPRLPRPRPRPVYMPRP,0.361
18,RRIRLRPPRLPRPRPRPQCPPRP,-0.266
19,RRIRLRPPRLPRPRPRPSGEPRP,0.0911
20,RRIRIRPPRLPRPRPRPRIGPRP,-0.0469
21,RRIRNRPPRLPRPRPRPEYDPRP,-0.0369
22,RRIRTRPPRLPRPRPRPSITPRP,-0.484

row,Sequence,shrunken log2 fold change
1,RRIRRRPPRLPRPRPRPVLMPRP,0.146
2,RRIRQRPPRLPRPRPRPKVAPRP,-0.00277
3,RRIRCRPPRLPRPRPRPDTPPRP,0.0764
4,RRIRVRPPRLPRPRPRPMWNPRP,-0.0504
5,RRIRPRPPRLPRPRPRPEQNPRP,-0.199
6,RRIRIRPPRLPRPRPRPKCPPRP,-0.263
7,RRIRNRPPRLPRPRPRPGPQPRP,0.0395
8,RRIRDRPPRLPRPRPRPRIAPRP,0.114
9,RRIRFRPPRLPRPRPRPFVKPRP,-0.457
10,RRIRTRPPRLPRPRPRPNKKPRP,-0.26
11,RRIRPRPPRLPRPRPRPVNFPRP,-0.59
12,RRIRNRPPRLPRPRPRPFWDPRP,-0.0775
13,RRIRGRPPRLPRPRPRPCLWPRP,0.426
14,RRIRHRPPRLPRPRPRPCPAPRP,-0.231
15,RRIRSRPPRLPRPRPRPPFFPRP,0.143
16,RRIRHRPPRLPRPRPRPLHIPRP,-0.453
17,RRIRTRPPRLPRPRPRPTWAPRP,-0.117
18,RRIRSRPPRLPRPRPRPSAIPRP,0.0168
19,RRIRTRPPRLPRPRPRPNPMPRP,-0.383
20,RRIRYRPPRLPRPRPRPCGGPRP,0.00427
21,RRIRFRPPRLPRPRPRPYHYPRP,-0.521
22,RRIRERPPRLPRPRPRPFMEPRP,-0.00484

row,Sequence,shrunken log2 fold change
1,RRIRPRPPRLPRPRPRPFCGPRP,0.00967
2,RRIRWRPPRLPRPRPRPNSGPRP,0.0642
3,RRIRCRPPRLPRPRPRPLRVPRP,0.0985
4,RRIRSRPPRLPRPRPRPSWEPRP,0.0729
5,RRIRDRPPRLPRPRPRPCDYPRP,-0.0874
6,RRIRNRPPRLPRPRPRPSGLPRP,0.0284
7,RRIRGRPPRLPRPRPRPKFYPRP,-0.278
8,RRIRCRPPRLPRPRPRPCMMPRP,-0.914
9,RRIRTRPPRLPRPRPRPGAHPRP,0.0457
10,RRIRIRPPRLPRPRPRPIYCPRP,-0.0326
11,RRIRERPPRLPRPRPRPDGAPRP,0.129
12,RRIRVRPPRLPRPRPRPKMNPRP,-0.262
13,RRIRWRPPRLPRPRPRPFTQPRP,-0.0585
14,RRIRARPPRLPRPRPRPTPDPRP,0.848
15,RRIRCRPPRLPRPRPRPKVLPRP,0.0115
16,RRIRDRPPRLPRPRPRPTFFPRP,2.16
17,RRIRGRPPRLPRPRPRPSSNPRP,0.369
18,RRIRYRPPRLPRPRPRPIYSPRP,-0.143
19,RRIRHRPPRLPRPRPRPLWEPRP,0.0119
20,RRIRTRPPRLPRPRPRPPGSPRP,0.00863
21,RRIRQRPPRLPRPRPRPELNPRP,0.0915
22,RRIRHRPPRLPRPRPRPYPTPRP,-0.219

row,Sequence,shrunken log2 fold change
1,RRIRVRPPRLPRPRPRPFVLPRP,-0.322
2,RRIRLRPPRLPRPRPRPVLVPRP,-0.161
3,RRIRIRPPRLPRPRPRPYQLPRP,-0.699
4,RRIRFRPPRLPRPRPRPMIIPRP,-0.871
5,RRIRARPPRLPRPRPRPIRKPRP,0.0897
6,RRIRWRPPRLPRPRPRPMHAPRP,0.542
7,RRIRKRPPRLPRPRPRPYYDPRP,-0.204
8,RRIRWRPPRLPRPRPRPVQFPRP,0.0316
9,RRIRWRPPRLPRPRPRPAYQPRP,0.106
10,RRIRARPPRLPRPRPRPSPAPRP,0.616
11,RRIRKRPPRLPRPRPRPMPNPRP,0.399
12,RRIRMRPPRLPRPRPRPSQMPRP,0.344
13,RRIRIRPPRLPRPRPRPPKYPRP,-0.886
14,RRIRHRPPRLPRPRPRPRETPRP,0.0714
15,RRIRLRPPRLPRPRPRPDMMPRP,-0.295
16,RRIRHRPPRLPRPRPRPAEIPRP,0.000898
17,RRIRERPPRLPRPRPRPVIGPRP,-0.108
18,RRIRPRPPRLPRPRPRPIYTPRP,-0.245
19,RRIRLRPPRLPRPRPRPQLKPRP,-0.0336
20,RRIRSRPPRLPRPRPRPSFSPRP,-0.351
21,RRIRDRPPRLPRPRPRPGLKPRP,-0.0696

# From the supplement of paper PMC9112550, “Optimization of the antimicrobial peptide Bac7 by deep mutational scanning” (BMC Biology, 2022)
